The record followed here is patent US7029865.

Targets include hMC-3R (human), P41968; hMC-4R (human), P32245; hMC-5R (human), P33032.
Assay in all cases: competition
Holding throughout (details): modification not given

The next test addresses T1, rhMC-4R (rhesus monkey).
T1 chain: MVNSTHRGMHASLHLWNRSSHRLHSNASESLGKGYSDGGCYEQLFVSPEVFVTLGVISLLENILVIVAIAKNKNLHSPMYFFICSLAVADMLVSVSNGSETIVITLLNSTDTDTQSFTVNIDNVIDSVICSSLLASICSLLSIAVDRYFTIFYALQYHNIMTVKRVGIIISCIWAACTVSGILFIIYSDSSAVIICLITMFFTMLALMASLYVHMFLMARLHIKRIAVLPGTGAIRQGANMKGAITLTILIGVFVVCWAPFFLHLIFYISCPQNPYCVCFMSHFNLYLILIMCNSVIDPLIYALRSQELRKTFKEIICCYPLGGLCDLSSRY

hMC-5R (human), P33032, sequence (P33032 whole entry): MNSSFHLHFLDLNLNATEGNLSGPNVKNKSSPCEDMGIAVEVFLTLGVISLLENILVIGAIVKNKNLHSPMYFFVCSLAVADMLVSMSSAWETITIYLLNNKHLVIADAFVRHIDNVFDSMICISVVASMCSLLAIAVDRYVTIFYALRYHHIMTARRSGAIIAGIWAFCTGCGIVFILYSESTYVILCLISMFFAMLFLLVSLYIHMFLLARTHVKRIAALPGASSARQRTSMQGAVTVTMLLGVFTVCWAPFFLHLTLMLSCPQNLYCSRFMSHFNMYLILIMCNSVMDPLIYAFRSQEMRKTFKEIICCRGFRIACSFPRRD
hMC-3R (human), P41968, sequence (P41968 whole entry): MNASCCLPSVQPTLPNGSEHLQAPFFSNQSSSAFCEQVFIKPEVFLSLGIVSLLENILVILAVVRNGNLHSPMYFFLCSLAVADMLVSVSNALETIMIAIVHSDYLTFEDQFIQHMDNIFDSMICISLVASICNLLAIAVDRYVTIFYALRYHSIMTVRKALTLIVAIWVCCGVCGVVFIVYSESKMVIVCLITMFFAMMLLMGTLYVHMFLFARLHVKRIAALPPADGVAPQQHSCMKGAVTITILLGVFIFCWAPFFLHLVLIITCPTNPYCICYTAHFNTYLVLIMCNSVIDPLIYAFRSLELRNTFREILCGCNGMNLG

As to SYSMEHFRWGKPV [alpha-MSH, P01189], the IC50 (commonly the concentration needed to halve the response being measured) with rhMC-4R (rhesus monkey) was found to be 27 nM.

SYSMEHFRWGKPVGKKRRPVKVYPNGAEDESAEAFPLEF [ACTH1-39, P01189]: the IC50 is 6 nM in the test with hMC-3R (human), P41968; 6 nM in the test with hMC-4R (human), P32245; 0.4 nM in the test with hMC-5R (human), P33032; 1.3 nM in the test with rhMC-4R (rhesus monkey).
